Test results: doi:10.1101/858225, “FANCD2-FANCI is a clamp stabilized on DNA by monoubiquitination during DNA repair” (bioRxiv, 2019)

B1: StrepII-tagged Gallus gallus FANCD2 (expressed alone) (natural protein, UniProt Q68Y81 1-1439, looked up)
chain: MVSKRKLSKIDAAEESSKTDLQSRCPETKRSRISDKRAPSQGGLENEGVFEELLRTSGIILKVGEGQNEIAVDQTAFQKKLRVALEKHPSYPGVVNEFISGLESHIKDRSQFKNCLLPCTPARTEGSRTLVHSYCESLIKLLLGIKILQPAVVTLLLEKIPEFFFDVVGTFGTNFPRLIVNQFKWLDGLLDSQDLVKKLMQMLSVSPVPIQHDIITSLPEILEDSQQNEVARELSCLLKQGRRLTVPILDALSRLDLDAELLAEVRQSAMTIVPSVKLEDLPVVIKFILHNVKAADAVEVISDLRKSLDLSSCVLPLQLLGSQRKLKSQAQASSSMSQVTTSQNCVKLLFDVIKQAVRFQKDVSEAWIKAIENSTSVSDHKVLDLIVLLLIHSTNSKNRKQTEKVLRSKIRLGCMPEQLMQNAFQNHSMVIKDFFPSILSLAQTFLHSAHPAVVSFGSCMYKQAFAVFDSYCQQEVVCALVTHVCSGNETELDISLDVLTDLVILHPSLLLRYATFVKTILDSMQKLNPCQIRKLFYILSTLAFSQRQEGSYIQDDMHMVIRKWLSSSVPNHKQMGIIGAVTMMGSVALKRNEADGGLLERPELSIECDGQLSTLLDLVGFCCEQTPEVLALYYDELANLIEKQKGNLDLQLLDKFGKSLVEDFPNDFVVDLSPTVDGSFLFPVKSLYNLDEDETQGAIAINLLPLVSQSEPGRVADEMSNSRKRVVSPICLSPCFRLLRLYTGEQNNGSLEEIDALLGCPLYLTDLEVEGKLDSLSKQEREFLCSLLFYALNWFREVVNAFCQQQDAEMKGKVLTRLQNITELQNVLGKCLAATPGYVPPPATFDSEAPEGVPSINAGGPVRKKNGKKRKSDSSKACSAERTQADESSDGNQPDTELSELEKSATEKETGNPLAQLQSYRPYFRELDLEVFSVLHCGLLTKSILDTEMHTEASEVVQLGPAELCFLLDDMCWKLEHVLTPGSTRRVPFLKERGNKDVGFSHLCQRSPKEVAVCVVKLLKPLCNHMENMHNYFQTVIPNQGVVDESGLNIQEYQLMSSCYHQLLLAFRLLFAWSGFSQHENSNLLRSALQVLADRLKPGETEFLPLEELISESFQYLLNFQASIPSFQCAFILTQVLMAISEKPMTGWKREKMASLAKQFLCQSWMKPGGDREKGSHFNSALHTLLCVYLEHTDNILKAIEEISSVGVPELINSAKDGCSSTYPTLSRQTFPVFFRVMMAQLESSVKSIPAGKPSDSGEVQLEKLLKWNIAVRNFHILINLVKVFDSRPVLSICLKYGRLFVEAFLKLAMPLLDHSFKKHRDDVQSLLKTLQLSTRQLHHMCGHSKIHQDLGLTNHVPLLKKSLEQFVYRVKAMLAFNHCQEAFWVGVLKNRDLQGEEILSQASAAPEEDSAEGSEEDTADSAAEEPDGTDSDSGGAGR
notes: FANCD2, Gallus gallus, full length cDNA synthesized (GeneArt); C-terminal extension with a 3C protease site before the double StrepII tag; no cleavage is described; also called FANCD2 homodimer; D2-D2; source: Sf9, purified (Strep-Tactin, heparin, Superdex 200); not shown: double StrepII, C-terminal, kept
B2: His-tagged Gallus gallus FANCI (expressed alone) (natural protein, UniProt B0I564 1-1338, looked up)
chain: MAQRILQLAAEGSPERLQEALQGLTEGELGDMVTRQALRGRETAALLKGIFKGSPCSQQSGVLRRLQVYKHCVSLVESGDLHVGKVSEIIGLLMLEARQLPGHALAELATLFVEVIKRGSLSNGKSLELFSTVLTALSNSKESLAYGKGELNGEEFKKQLINTLCSSKWDPQCVIHLANMFRDIPLSGEELQFVVEKVLRMFSKLDLQEIPPLVYQLLLLSAKGSKKTVLEGIISFFNQLDKRQKEEQRVPQSADLEVATVPLDQLRHVEGTVILHIVSAINLDQDIGEELIKHLKTEQQKDPGKALCPFSVSLLLSTAVKHRLQEQIFDFLKTSITRSCKDLQILQASKFLQDLCPQQYDVTAVILEVVKNSAFGWDHVTQGLVDLGFSLMESYEPKKSFGGKAAETNLGLSKMPAQQACKLGASILLETFKVHEPIRSDILEQVLNRVLTKAASPVSHFIDLLSNIVVSAPLVLQNSSSRVTETFDNLSFLPIDTVQGLLRAVQPLLKVSMSVRDSLILVLQKAIFSRQLDARKAAVAGFLLLLRNFKILGSLTSSQCSQAIGATQVQADVHACYNSAANEAFCLEILGSLRRCLSQQADVRLMLYEGFYDVLRRNSQLASSIMETLLSQIKQYYLPQQDLLPPLKLEGCIMAQGDQIFLQEPLAHLLCCIQHCLAWYKSTVHLCKGAEDEEEEEDVGFEQNFEEMLESVTRRMIKSELEDFELDKSADFSPSSGVGVKNNIYAIQVMGICEVLIEYNFKIGNFSKNKFEDVLGLFTCYNKLSEILKEKAGKNKSTLGNRIARSFLSMGFVSTLLTALFRDNAQSHEESLAVLRSSTEFMRYAVSVALQKVQQLEEMGQTDGPDGQNPEKMFQNLCKITRVLLWRYTSIPTAVEESGKKKGKSISLLCLEGLLRIFNTMQQLYAARIPQFLQALDITDGDAEEADINVTEKAAFQIRQFQRSLVNQLSSAEDDFNSKETQLLITILSTLSKLLDPGSQQFLQFLTWTVKICKENALEDLSCCKGLLTLLFSLHVLYKSPVSLLRELAQDIHACLGDIDQDVEIESRSHFAIVNVKTAAPTVCLLVLGQADKVLEEVDWLIKRLTILGSDTSEDSTQASNQTQALEKGVILQLGTLLTVFHELVQTALPAGSCVDSLLRSLSKTYAILTSLIKHYIQACRSTSNTVPGRLEKLVKLSGSHLTPQCYSFITYVQNIHSESLSFAEEKKKKKKEDETAVVSTVMAKVLRDTKPIPNLIFAIEQYEKFLIHLSKKSKVNLMQYMKLSTSRDFRINASMLDSVLQEQNTEDAENEPDNNQSGTAEQPDENQEPQKKRRRKK
notes: FANCI, Gallus gallus, full length cDNA synthesized (GeneArt); C-terminal extension with a 3C protease site before the 6x His tag; no cleavage is described; The results call the FANCI of the pull-down 'untagged', the methods 'His-tagged'; also called free FANCI; monomeric FANCI; source: Sf9, purified (HisTrap, heparin, Superdex 200); not shown: 6x His, C-terminal, kept

How the values were obtained:
[1] = biological target: the molecule itself; experiment: SEC; Superdex 200 10/300, 50 mM HEPES pH 7.5, 150 mM NaCl, 1 mM TCEP; 300 µl of each protein at 1 µM; mix of 0.5 µM FANCD2 with 1 µM FANCI incubated 30 min at room temperature; fractions by SDS-PAGE
[2] = biological target: B1; experiment: pull-down; StrepII-tagged FANCD2 held on StrepTactin Sepharose, FANCI added at FANCD2:FANCI molar ratios 1:0 to 1:5 and 0:5; 50 mM HEPES pH 7.5, 150 mM NaCl, 1 mM TCEP; 15 min room temperature, 30 min 4 °C on resin, two washes; bound fraction by SDS-PAGE; conditions: both partners purified

Binder	stoichiometry N [1]	stoichiometry N [2]
B1	2	
B2		~1
